{"source": "paper PMC6424025", "about": "“Human DNA polymerase delta is a pentameric holoenzyme with a dimeric p12 subunit” (Life Science Alliance, 2019)", "key": {"[1]": {"target": "PCNA (Homo sapiens) (UniProt P12004)", "sequence (P12004 whole entry)": "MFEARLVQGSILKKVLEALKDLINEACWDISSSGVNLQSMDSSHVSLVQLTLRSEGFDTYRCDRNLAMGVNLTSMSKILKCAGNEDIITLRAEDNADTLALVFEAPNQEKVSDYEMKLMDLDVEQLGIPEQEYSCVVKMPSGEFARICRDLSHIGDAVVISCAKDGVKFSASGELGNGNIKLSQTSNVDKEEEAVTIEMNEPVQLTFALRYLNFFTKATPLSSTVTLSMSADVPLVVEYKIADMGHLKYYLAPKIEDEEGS", "conditions": "cited from earlier work"}, "[2]": {"target": "PCNA (Homo sapiens) (UniProt P12004)", "conditions": "cited from earlier work", "remark": "listed apart in the source"}, "[3]": {"target": "the molecule itself", "test": "cross-linking; 1-5 μg of protein in 20 mM Hepes pH 7.5, 0.5% formaldehyde, 30 min at 25°C, 12% SDS-PAGE, Coomassie"}, "[4]": {"target": "T1, human PCNA, wild type, purified (human, UniProt P12004 1-261)", "T1 construct": "Proliferating cell nuclear antigen, human; amplified from cDNA of HeLa total RNA; Treated as a trimer in the ITC analysis; also called hPCNA; proliferating cell nuclear antigen; source: E. coli BL21 DE3, purified (expressed as GST fusion, glutathione-sepharose)", "T1 sequence (P12004 whole entry, the tested form may be a part)": "as the sequence (P12004 whole entry) above", "test": "ITC; p12 (10 μM) in the cell, PCNA (120 μM) in the syringe, 25°C, 20 mM Hepes pH 7.4, 150 mM NaCl, single-site model; p12 taken as a dimer and PCNA as a trimer", "conditions": "both partners purified"}, "[5]": {"target": "the molecule itself", "test": "ITC; p12 (10 μM) in the cell, p12 (120 μM) in the syringe, 30°C, 20 mM Hepes pH 7.4, 150 mM NaCl, single-site model; dimer to monomers"}, "[6]": {"target": "the molecule itself", "test": "native gel or EMSA; 12% native PAGE, 80 V for 5 h at 4°C, 25 mM Tris base, 192 mM glycine, pH 8.8, Coomassie staining; migration compared with carbonic anhydrase or with the mutant"}}, "note": "Read-outs that look alike come from different tables or passages of the source."}
{"molecule": "DNA polymerase delta holoenzyme (from UniProt P28340)", "values": [{"measurement": "Kd", "setting": "[1]", "value": 7.1, "unit": "nM"}]}
{"molecule": "DNA polymerase delta core (from UniProt P28340)", "values": [{"measurement": "Kd", "setting": "[2]", "value": 73, "unit": "nM"}]}
{"molecule": "p12 subunit of human DNA polymerase delta, wild type, purified, GST tag cleaved off (natural protein, UniProt Q9HCU8 1-107, looked up, DNA polymerase delta subunit 4 (p12), human; PCR product from pCOLA-hPold234; also called untagged p12; wild-type p12; source: E. coli BL21 DE3, purified (glutathione-sepharose; GST cleaved by PreScission protease); not shown: GST, N-terminal, cleaved) MGRKRLITDSYPVVKRREGPAGHSKGELAPELGEEPQPRDEEEAELELLRQFDLAWQYGPCTGITRLQRWCRAKQMGLEPPPEVWQVLKTHPGDPRFQCSLWHLYPL", "values": [{"measurement": "stoichiometry N", "setting": "[3]", "value": 2}, {"measurement": "Kd", "setting": "[4]", "value": 10000, "unit": "nM"}, {"measurement": "Kd", "setting": "[5]", "value": "~146", "unit": "nM"}, {"measurement": "dH", "setting": "[5]", "value": -1.82, "unit": "kcal/mol"}, {"measurement": "stoichiometry N", "setting": "[5]", "value": "~0.6"}]}
{"molecule": "p12 L104A, Y105A mutant, purified, GST tag cleaved off (natural protein, human, UniProt Q9HCU8 1-107, looked up, DNA polymerase delta subunit 4 (p12), human; PCR product from pCOLA-hPold234; also called PIP-motif p12 mutant; source: E. coli BL21 DE3, purified (glutathione-sepharose; GST cleaved by PreScission protease); not shown: GST, N-terminal, cleaved) MGRKRLITDSYPVVKRREGPAGHSKGELAPELGEEPQPRDEEEAELELLRQFDLAWQYGPCTGITRLQRWCRAKQMGLEPPPEVWQVLKTHPGDPRFQCSLWHAAPL", "values": [{"measurement": "stoichiometry N", "setting": "[3]", "value": 2}]}
{"molecule": "Cdm1 of Schizosaccharomyces pombe, wild type, purified (natural protein, S. pombe, UniProt O59835 1-160, looked up, Cdm1, fourth subunit of DNA polymerase delta, S. pombe; 160 aa, 18.6 kD; PCR-amplified from genomic DNA; also called wild-type Cdm1; source: E. coli BL21 DE3, purified (bacterial overexpression from pNA716)) MKKRTTQAKKSGQNTNIRDVFPHVVRSNSSQSHIGKKVSSEQSPTPDVTITTKTLDERIKEDDELSKEVEEAWNQIMAERISEPIHCENITKVEFILHHFDTTARYGPYLGMTRMQRWKRAKNFNLNPPETVGKILMLEEADEENRKRESLFYDLQTIPG", "values": [{"measurement": "binding result", "setting": "[6]", "value": "binds"}]}
